± gives the half width of the 95% confidence interval.
Tests used:
[1] = folding stability dG unfold from chymotrypsin proteolysis; higher = more stable
In short: (§1)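 Designed mini-proteins with no cysteine and under 80 residues were kept only if AlphaFold2 dimer inter-PAE was above 15. In a PA-tagged cDNA display construct, they were digested with trypsin and chymotrypsin and then sequenced. K50 was inferred by Bayesian fitting of counts, and unfolding free energy was derived per protease or combined against a sequence-predicted unfolded-state K50 and a shared folded-state K50.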

[2] = folding stability dG unfold from trypsin proteolysis; higher = more stable
In short: as §1

[3] = folding stability dG unfold (combined trypsin and chymotrypsin); higher = more stable
In short: as §1

Row | Sequence | folding stability dG unfold [1] [kcal/mol] | folding stability dG unfold [2] [kcal/mol] | folding stability dG unfold [3] [kcal/mol]
1 | SAGGSAGGSPLDIEIKMEFHPDHGYWEMEIKIPGNGREINIHYQYEGGKPQITSPEQILDAIKSAGGSAGGS [r20_131_TrROS] | 1.5 ± 0.082 | 0.622 ± 0.12 | 1.24 ± 0.24
2 | SAGGSAGGSPLPYLTEDGEVQVVVRIDNSTGTTTVTLTGPDGKLLKTFSVSTDGPAFVVVRAGSAGGSAGGS [r12_960_TrMRF] | 1.92 ± 0.028 | 1.34 ± 0.034 | 1.72 ± 0.064
3 | SAGGSAGGSPMPVIEEVPLNPVEEKPDPSSNTLTVKYPDGTYRILTKNPDGSYSFKVLPSSSISAGGSAGGS [r12_351_JUSTAS] | 1.56 ± 0.098 | 1.67 ± 0.034 | 1.71 ± 0.089
4 | SAGGSAGGSPNDMKEVDFPIKFPKEKFKVKIWRHPDDPNRYYIRFPSNGAIFWFDPNGDIEPLSAGGSAGGS [r12_580_TrROS] | 1.75 ± 0.085 | 1.01 ± 0.056 | 1.49 ± 0.1
5 | SAGGSAGGSPNTIEIWIQIPPGDPEKVEEIAKKLRDEGFKDIKVDEVHRNPDDSYYVEIKITVSAGGSAGGS [r12_91_TrROS] | 1.12 ± 0.025 | 1.55 ± 0.12 | 1.42 ± 0.083
6 | SAGGSAGGSPPMKTYEHWIRFDSPEQAVEEVANHIQDHFGLEIKSVEIEYDPENGWVRVKIVISAGGSAGGS [r12_265_TrROS] | 3.449 ± 0.029 | 2.71 ± 0.075 | 3.12 ± 0.14
7 | SAGGSAGGSPPPDIKVEVESYENPDGQRYYRVTITIDDGRPFDIWMPPGMSPSEAKNWLKDLLSAGGSAGGS [r12_1019_TrROS] | 3.964 ± 0.035 | 3.35 ± 0.08 | 3.78 ± 0.094
8 | SAGGSAGGSPPPITIFTAYKDPEDGPYWMKRRKINPDNGNIEEEWYPADDLADHGLPPGDIFISAGGSAGGS [r12_123_TrROS] | 0.413 ± 0.33 | -0.566 ± 0.88 | 0.203 ± 0.2
9 | SAGGSAGGSPPPRFRVVVVFEDGTRREFDLTPEELVAFAEVVPDVVVEELPPGEVRITVRLPGSAGGSAGGS [r20_231_TrMRF] | 3.11 ± 0.056 | 2.45 ± 0.081 | 2.91 ± 0.1
10 | SAGGSAGGSPVLIPVKTPEEIKKFLEKASSDAKFKVFNNKGEWKEVSKNEISVTPEEQFILVYSAGGSAGGS [r12_907_TrMRF] | 0.662 ± 0.14 | 0.437 ± 0.048 | 0.578 ± 0.068
11 | SAGGSAGGSPVLLAESVTTLPDGTVVRTRLVRLPDGTYLRETETYPPGGAPARAVERFDDPRLASAGGSAGG [r6_299_JUSTAS] | 3.505 ± 0.023 | 1.66 ± 0.039 | 3.07 ± 0.059
12 | SAGGSAGGSPVPVKVEKKPTKENKELIITYYPDGKVRVTTYTYDENGNKISEKEEIIPKSEVKLSAGGSAGG [r6_579_JUSTAS] | 1.58 ± 0.032 | 0.81 ± 0.032 | 1.37 ± 0.061
13 | SAGGSAGGSPVPVKVVVKLPSSDKTIELTLYPPDVSPDSVVTVDLGGPAIDVKLLPGDVLELSPSAGGSAGG [r6_461_JUSTAS] | 0.524 ± 0.039 | 0.114 ± 0.034 | 0.323 ± 0.097
14 | SAGGSAGGSPVVAIRAKSREELLAALEALLPPGQKLTPEQRQQLVDTLLANLDVKPGDTILVRSAGGSAGGS [r12_983_TrROS_Hall] | 0.921 ± 0.034 | 1.07 ± 0.064 | 0.992 ± 0.12
15 | SAGGSAGGSPVVLYEVDPSTNSVTLTVEVLHPDGTPLRKEYTTNGDPLEAALRFAKAVLEEAGSAGGSAGGS [r20_33_TrMRF] | 0.813 ± 0.17 | 0.407 ± 0.21 | 0.699 ± 0.12
16 | SAGGSAGGSSGMVKAEFGLVAPDGTPVSTRTLTFSSEEEIEEALAALPEFSLALVPDVKRGPLSAGGSAGGS [r12_182_JUSTAS] | 0.86 ± 0.13 | -0.586 ± 0.38 | 0.51 ± 0.14
17 | SAGGSAGGSSKNGKPKPTIKVEMPDKPGPHEIPIPESDPDEAKTLAEELAQKWPGVPVRIEPTSAGGSAGGS [r12_601_TrROS] | 0.989 ± 0.057 | -0.293 ± 0.1 | 0.582 ± 0.13
